These results are taken from the RNAGym collection of RNA variant scans (doi:10.7554/elife.80360).

The labels stand for the following.
B1: HDV Ribozyme (parent)
chain: GGCCGGCAUGGUCCCAGCCUCCUCGCUGGCGCCGGCUGGGCAACAUUCCGAGGGGACCGUCCCCUCGGUAAUGGCGAAUGGGACCCA

In the series the parent is B1. Description: self-cleavage, relative activity (ratio to wild type); higher = more cleavage; co-transcriptional.
Consider GGCCGGCAUGGUCCCAGCCUCCUCGCUGGAGCCGGCUGGGCAACAUUCCGAAGGGACCGUCCCCUCGGUAAUGGCGAAUGGGACCCA, for which the self-cleavage came to 0.522.

Take GGCCGGCAUGGUCCCAGCCUCCUCGCUGGAGCCGGCUGGGCAACAUUCCGACGGGACCGUCCCCUCGGUAAUGGCGAAUGGGACCCA: the self-cleavage came out at 0.58.

For the variant GGCCGGCAUGGUCCCAGCCUCCUCGCUGGAGCCGGCUGGGCAACAUUCCGAGGGGACCGUCCCCUUGGUAAUGGCGAAUGGGACCCA, the self-cleavage worked out at 0.421.

Turning to GGCCGGCAUGGUCCCAGCCUCCUCGCUGGAGCCGGGUGGGCAACAUUCCGAGGGGACCGUCCCCUCGGUAAUGGCGAAUGGGACCCA, the self-cleavage was 0.148.

Take GGCCGGCAUGGUCCCAGCCUCCUCGCUGGAGCCGGCUGGGCAACAUUCCGAGGGGACCGUCCCCUCGGUACUGGCGAAUGGGACCCA: the self-cleavage came to 0.345.

GGCCGGCAUGGUCCCAGCCUCCUCGCUGGAGCCGGCUGGGCAACAUUCCGAGGGGACCGUCCCCUCGGUAGUGGCGAAUGGGACCCA: the self-cleavage was 0.517.

Take GGCCGGCAUGGUCCCAGCCUCCUCGCUGGAGCCGGCUGGGCAACAUUCCGAGGGGACCGUCCCCUCGGUAAUGGCGAAUGGGACUCA: the self-cleavage was found to be 0.554.

As for GGCCGGCAUGGUCCCAGCCUCCUCGCUGGAGCCGGCUGGGCAACAUUCCGAGGGGACCGUCCCCUCGGUAAUGGCGAAUGGGACACA, the self-cleavage worked out at 0.295.

GGCCGGCAUGGUCCCAGCCUCCUCGCUGGAGCCGGCUGGGCAACAUUCCGAGGGGACCGUCCCCUCGGUAAUGGCGAAUGGGACGCA: the self-cleavage was 0.509.

Regarding GGCCGGCAUGGUCCCAGCCUCCUCGCUGGAGCCGGCUCGGCAACAUUCCGAGGGGACCGUCCCCUCGGUAAUGGCGAAUGGGACCCA, the self-cleavage was 0.203.

On to GGCCGGCAUGGUCCCAGCCUCCUCGCUGGAGCCGGCUGGGCAACAUUCCGAGGGGACGGUCCCCUCGGUAAUGGCGAAUGGGACCCA, for which the self-cleavage was 0.596.

For the variant GGCCGGCAUGGUCCCAGCCUCCUCGCUGGAGCCGGCUGGGCAACAUUCCGAGGGGACCGUCCCCUCGGUAAUGGCGUAUGGGACCCA, the self-cleavage was found to be 0.0354.

In the case of GGCCGGCAUGGUCCCAGCCUCCUCGCUGGAGCCGGCUGGGCAACAUUCCGAGGGGACCGUCUCCUCGGUAAUGGCGAAUGGGACCCA, the self-cleavage amounted to 0.423.

Turning to GGCCGGCAUGGUCCCAGCCUCCUCGCUGGAGCCGGCUGGGCCACAUUCCGAGGGGACCGUCCCCUCGGUAAUGGCGAAUGGGACCCA, the self-cleavage came to 0.14.

As to GGCCGGCAUGGUCCCAGCCUCCUCGCUGGAGCCGGCUGGGCUACAUUCCGAGGGGACCGUCCCCUCGGUAAUGGCGAAUGGGACCCA, the self-cleavage was 0.241.

As for GGCCGGCAUGGUCCCAGCCUCCUCGCUGGAGCCGGCUGGGCAACAUUCUGAGGGGACCGUCCCCUCGGUAAUGGCGAAUGGGACCCA, the self-cleavage was 0.615.

In the case of GGCCGGCAUGGUCCCAGCCUCCUCGCUGGAGCCGGCUGGGCAACAUUCGGAGGGGACCGUCCCCUCGGUAAUGGCGAAUGGGACCCA, the self-cleavage stood at 0.232.

In the case of GGCCGGCAUGGUCCCAGCCUCCUCGCUGGAGCGGGCUGGGCAACAUUCCGAGGGGACCGUCCCCUCGGUAAUGGCGAAUGGGACCCA, the self-cleavage came out at 0.128.

In the case of GGCCGGCAUGGUCCCAGCCUCCUCGCUGGAGCUGGCUGGGCAACAUUCCGAGGGGACCGUCCCCUCGGUAAUGGCGAAUGGGACCCA, the self-cleavage was determined as 0.15.

Turning to GGCCGGCAUGGUCCCAGCCUCCUCGCUGGAGCAGGCUGGGCAACAUUCCGAGGGGACCGUCCCCUCGGUAAUGGCGAAUGGGACCCA, the self-cleavage was 0.0615.

Take GGCCGGCAUGGUCCCAGCCUCCUCGCUGGACCCGGCUGGGCAACAUUCCGAGGGGACCGUCCCCUCGGUAAUGGCGAAUGGGACCCA: the self-cleavage amounted to 0.115.

For the variant GGCCGGCAUGGUCCCAGCCUCCUCGCUGGAUCCGGCUGGGCAACAUUCCGAGGGGACCGUCCCCUCGGUAAUGGCGAAUGGGACCCA, the self-cleavage was determined as 0.0733.

With GGCCGGCAUGGUCCCAGCCUCCUCGCUGGAGCCGGCUGGGAAACAUUCCGAGGGGACCGUCCCCUCGGUAAUGGCGAAUGGGACCCA, the self-cleavage is 0.429.

GGCCGGCAUGGUCCCAGCCUCCUCGCUGGAGCCGGCUGGGCAGCAUUCCGAGGGGACCGUCCCCUCGGUAAUGGCGAAUGGGACCCA: the self-cleavage is 0.0739.

With GGCCGGCAUGGUCCCAGCCUCCUCGCUGGAGCCGGCUGGGCACCAUUCCGAGGGGACCGUCCCCUCGGUAAUGGCGAAUGGGACCCA, the self-cleavage was found to be 0.0326.

In the case of GGCCGGCAUGGUCCCAGCCUCCUCGCUGGAGCCGGCUGGGCAACAUUCCGAGGGGACCGUCCCCUCGGUAAUGGUGAAUGGGACCCA, the self-cleavage is 0.101.

With GGCCGGCAUGGUCCCAGCCUCCUCGCUGGAGCCGGCUGGGCAACUUUCCGAGGGGACCGUCCCCUCGGUAAUGGCGAAUGGGACCCA, the self-cleavage came to 0.375.

Take GGCCGGCAUGGUCCCAGCCUCCUCGCUGGAGCCGGCUGGGCAACGUUCCGAGGGGACCGUCCCCUCGGUAAUGGCGAAUGGGACCCA: the self-cleavage was 0.391.

GGCCGGCAUGGUCCCAGCCUCCUCGCUGGAGCCGGCUGGGCAACAUUCCGAGGGGACCGUCCCGUCGGUAAUGGCGAAUGGGACCCA: the self-cleavage is 0.485.

As to GGCCGGCAUGGUCCCAGCCUCCUCGCUGGAGCCGGCUGGGCAACAUUCCUAGGGGACCGUCCCCUCGGUAAUGGCGAAUGGGACCCA, the self-cleavage turned out to be 0.729.

In the case of GGCCGGCAUGGUCCCAGCCUCCUCGCUGUCGCCGGCUGGGCAACAUUCCGAGGGGACCGUCCCCUCGGUAAUGGCGAACGGGACCCA, the self-cleavage amounted to 0.122.

In the case of GGCCGGCAUGGUCCCAGCCUCCUCGCUGUCGCCGGCUGGGCAACAUUCCGAGGGGACCGUCCCCUCGGUAAUGGCGAAGGGGACCCA, the self-cleavage is 0.0386.
